According to US20050245441A1:

Target: rat GIP receptor (rat) (UniProt P43219)
Test: cell-based or functional assay

UniProt P43219, sequence (P43219 19-455): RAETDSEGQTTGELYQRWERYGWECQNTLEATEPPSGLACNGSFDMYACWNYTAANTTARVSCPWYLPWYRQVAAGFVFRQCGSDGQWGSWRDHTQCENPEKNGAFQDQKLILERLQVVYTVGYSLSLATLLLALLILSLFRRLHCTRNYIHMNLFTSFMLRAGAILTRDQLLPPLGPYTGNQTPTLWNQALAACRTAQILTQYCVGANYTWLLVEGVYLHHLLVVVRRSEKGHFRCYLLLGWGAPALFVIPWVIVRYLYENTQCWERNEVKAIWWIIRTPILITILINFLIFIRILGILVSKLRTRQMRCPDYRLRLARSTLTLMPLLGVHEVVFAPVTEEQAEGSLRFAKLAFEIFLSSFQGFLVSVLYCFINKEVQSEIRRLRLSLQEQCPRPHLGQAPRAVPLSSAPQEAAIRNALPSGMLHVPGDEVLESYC

cell proliferation (CyQUANT DNA content) of cultured adult hippocampal progenitor cells, 1 nM GIP, 48 h (% increase relative to control): 74.5 | methyl-[3H]-thymidin incorporation in cultured adult hippocampal progenitor cells, 1 nM GIP, 24 h (% increase compared to control): 32.4
Substance: synthetic porcine GIP (Sigma) (from UniProt P01281 1-42) (peptide)
